Assay results as given in paper doi:10.1101/2020.06.05.136150 (bioRxiv, 2020).
No end group written: not given here. *: point of attachment. FITC = O=C1OC2(c3ccc(O)cc3Oc3cc(O)ccc32)c2ccc(NC(=S)*)cc21

T1: PBP1bγ (E. coli, UniProt P02919-2 1-799)
T1 sequence: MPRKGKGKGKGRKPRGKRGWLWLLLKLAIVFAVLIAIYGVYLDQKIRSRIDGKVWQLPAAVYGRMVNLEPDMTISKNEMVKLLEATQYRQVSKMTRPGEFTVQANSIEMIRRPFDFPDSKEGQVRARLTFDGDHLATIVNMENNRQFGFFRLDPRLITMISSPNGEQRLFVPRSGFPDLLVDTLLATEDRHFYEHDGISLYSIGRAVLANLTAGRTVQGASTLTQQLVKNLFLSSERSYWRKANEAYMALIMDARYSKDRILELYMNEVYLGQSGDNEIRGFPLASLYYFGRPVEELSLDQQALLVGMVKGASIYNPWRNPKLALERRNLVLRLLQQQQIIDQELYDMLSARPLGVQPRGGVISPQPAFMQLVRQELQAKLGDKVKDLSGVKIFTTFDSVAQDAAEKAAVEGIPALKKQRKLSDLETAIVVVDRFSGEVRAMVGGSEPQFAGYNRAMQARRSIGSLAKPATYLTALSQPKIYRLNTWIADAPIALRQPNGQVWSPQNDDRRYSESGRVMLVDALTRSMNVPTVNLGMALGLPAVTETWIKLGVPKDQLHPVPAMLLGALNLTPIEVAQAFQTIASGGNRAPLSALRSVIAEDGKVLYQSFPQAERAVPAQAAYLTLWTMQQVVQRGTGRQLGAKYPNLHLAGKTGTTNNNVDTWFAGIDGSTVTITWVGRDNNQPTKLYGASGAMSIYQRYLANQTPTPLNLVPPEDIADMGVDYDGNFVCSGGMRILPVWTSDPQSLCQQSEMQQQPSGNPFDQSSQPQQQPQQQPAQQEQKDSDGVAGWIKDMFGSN

T2: PBP1b (58-804) (E. coli, UniProt P02919 58-804)
T2 sequence: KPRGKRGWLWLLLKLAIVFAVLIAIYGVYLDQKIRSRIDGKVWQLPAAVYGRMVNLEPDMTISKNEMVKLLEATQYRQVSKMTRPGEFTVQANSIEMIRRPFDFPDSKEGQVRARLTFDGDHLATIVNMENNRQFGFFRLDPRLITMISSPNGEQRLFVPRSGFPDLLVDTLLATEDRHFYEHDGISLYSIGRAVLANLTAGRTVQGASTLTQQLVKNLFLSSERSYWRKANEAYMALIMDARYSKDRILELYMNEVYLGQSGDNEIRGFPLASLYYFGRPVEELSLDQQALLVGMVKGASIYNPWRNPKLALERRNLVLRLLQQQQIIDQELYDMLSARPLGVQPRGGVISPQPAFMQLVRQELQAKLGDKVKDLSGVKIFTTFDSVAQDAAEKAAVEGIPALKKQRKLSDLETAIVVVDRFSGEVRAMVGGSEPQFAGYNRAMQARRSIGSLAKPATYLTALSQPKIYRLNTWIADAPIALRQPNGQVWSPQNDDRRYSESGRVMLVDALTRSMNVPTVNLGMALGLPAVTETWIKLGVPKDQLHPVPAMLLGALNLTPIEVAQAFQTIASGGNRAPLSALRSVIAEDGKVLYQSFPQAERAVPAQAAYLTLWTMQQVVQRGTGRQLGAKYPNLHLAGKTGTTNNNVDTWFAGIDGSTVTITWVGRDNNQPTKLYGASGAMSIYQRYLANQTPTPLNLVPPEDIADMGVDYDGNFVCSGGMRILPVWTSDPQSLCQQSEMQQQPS


Legend:
[1] = target: T1, PBP1bγ; assay: fluorescence polarisation
[2] = target: T2, PBP1b (58-804); assay: crystal structure

Kd [1] | binding result [2] | Binder
8.1 ± 1.7 µM | – | {FITC}-KVTGNGLPPKPEERWRYIKELESRQ [FITC labeled peptide (FITC-K69-Q93) of FtsN]
– | binds | LPPKPEERWRYIKELESRQ [^EFtsN peptide (L75-Q93), unlabeled]
